Target: Fc6 (recombinant human IgG1 Fc protein) (human)
Experiment: SEC; analytical SEC of the Protein A purified reaction products on TSKgel SuperSW3000; native, non-reducing; 50 mM sodium phosphate pH 7.4, 300 mM NaCl, 25 °C

Substance: Fc6 (recombinant human IgG1 Fc protein) (domain or fragment)
- stoichiometry N: 2
